Data reported in US20230218721A1 (ZHEJIANG DOER BIOLOGICS, published 2023).
Starred links: 1 amine or outer side, 2 acyl side, 3 side chain; linkers in the order of their positions; H or OH if unused. Groups on a side chain read outwards from the residue. No end group written: not given here. *: point of attachment. C20 diacid = O=C(O)CCCCCCCCCCCCCCCCCCC(=O)*; C18 diacid = O=C(O)CCCCCCCCCCCCCCCCC(=O)*; γGlu = O=C(O)[C@H](CCC(=O)[*:2])N[*:1]; Palmitoyl = CCCCCCCCCCCCCCCC(=O)*; AEEA = NCCOCCOCC(=O)O

T1: glucose-dependent insulinotropic polypeptide receptor (GIPR) (human (printed as 'Humanized'), UniProt P48546 22-466)
T1 sequence (looked up): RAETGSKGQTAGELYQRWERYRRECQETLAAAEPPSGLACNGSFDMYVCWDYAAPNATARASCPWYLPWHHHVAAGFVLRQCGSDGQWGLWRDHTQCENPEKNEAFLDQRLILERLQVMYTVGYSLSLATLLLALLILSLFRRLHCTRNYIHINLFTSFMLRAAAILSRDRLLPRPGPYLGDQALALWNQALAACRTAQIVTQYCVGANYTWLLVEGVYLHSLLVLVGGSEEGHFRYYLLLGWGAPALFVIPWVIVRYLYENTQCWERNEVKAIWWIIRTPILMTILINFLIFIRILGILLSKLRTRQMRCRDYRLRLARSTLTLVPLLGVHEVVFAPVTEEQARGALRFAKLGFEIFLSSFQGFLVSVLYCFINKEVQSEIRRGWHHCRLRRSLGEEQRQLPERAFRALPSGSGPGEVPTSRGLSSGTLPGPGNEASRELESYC

B1: glucagon derivative P9YELAN (peptide)
peptide: YSEGTFTSDK([AEEA-AEEA-γGlu-C20 diacid])SKYLDSQAAQDFVQWLLAGGPSSGAPPPS-NH2
modifications: N-terminus assumed
SMILES: CC(C)C[C@H](NC(=O)[C@H](CC(C)C)NC(=O)[C@H](Cc1c[nH]c2ccccc12)NC(=O)[C@H](CCC(N)=O)NC(=O)[C@@H](NC(=O)[C@H](Cc1ccccc1)NC(=O)[C@H](CC(=O)O)NC(=O)[C@H](CCC(N)=O)NC(=O)[C@H](C)NC(=O)[C@H](C)NC(=O)[C@H](CCC(N)=O)NC(=O)[C@H](CO)NC(=O)[C@H](CC(=O)O)NC(=O)[C@H](CC(C)C)NC(=O)[C@H](Cc1ccc(O)cc1)NC(=O)[C@H](CCCCN)NC(=O)[C@H](CO)NC(=O)[C@H](CCCCNC(=O)COCCOCCNC(=O)COCCOCCNC(=O)CC[C@H](NC(=O)CCCCCCCCCCCCCCCCCCC(=O)O)C(=O)O)NC(=O)[C@H](CC(=O)O)NC(=O)[C@H](CO)NC(=O)[C@@H](NC(=O)[C@H](Cc1ccccc1)NC(=O)[C@@H](NC(=O)CNC(=O)[C@H](CCC(=O)O)NC(=O)[C@H](CO)NC(=O)[C@@H](N)Cc1ccc(O)cc1)[C@@H](C)O)[C@@H](C)O)C(C)C)C(=O)N[C@@H](C)C(=O)NCC(=O)NCC(=O)N1CCC[C@H]1C(=O)N[C@@H](CO)C(=O)N[C@@H](CO)C(=O)NCC(=O)N[C@@H](C)C(=O)N1CCC[C@H]1C(=O)N1CCC[C@H]1C(=O)N1CCC[C@H]1C(=O)N[C@@H](CO)C(N)=O
B2: incretin analogue P3YELAN (peptide)
peptide: YSEGTFTSDK([γGlu-Palmitoyl])SKYLDSQAAQDFVQWLLAGGPSSGAPPPS-NH2
modifications: N-terminus assumed
SMILES: CCCCCCCCCCCCCCCC(=O)N[C@@H](CCC(=O)NCCCC[C@H](NC(=O)[C@H](CC(=O)O)NC(=O)[C@H](CO)NC(=O)[C@@H](NC(=O)[C@H](Cc1ccccc1)NC(=O)[C@@H](NC(=O)CNC(=O)[C@H](CCC(=O)O)NC(=O)[C@H](CO)NC(=O)[C@@H](N)Cc1ccc(O)cc1)[C@@H](C)O)[C@@H](C)O)C(=O)N[C@@H](CO)C(=O)N[C@@H](CCCCN)C(=O)N[C@@H](Cc1ccc(O)cc1)C(=O)N[C@@H](CC(C)C)C(=O)N[C@@H](CC(=O)O)C(=O)N[C@@H](CO)C(=O)N[C@@H](CCC(N)=O)C(=O)N[C@@H](C)C(=O)N[C@@H](C)C(=O)N[C@@H](CCC(N)=O)C(=O)N[C@@H](CC(=O)O)C(=O)N[C@@H](Cc1ccccc1)C(=O)N[C@H](C(=O)N[C@@H](CCC(N)=O)C(=O)N[C@@H](Cc1c[nH]c2ccccc12)C(=O)N[C@@H](CC(C)C)C(=O)N[C@@H](CC(C)C)C(=O)N[C@@H](C)C(=O)NCC(=O)NCC(=O)N1CCC[C@H]1C(=O)N[C@@H](CO)C(=O)N[C@@H](CO)C(=O)NCC(=O)N[C@@H](C)C(=O)N1CCC[C@H]1C(=O)N1CCC[C@H]1C(=O)N1CCC[C@H]1C(=O)N[C@@H](CO)C(N)=O)C(C)C)C(=O)O
B3: glucagon derivative P5YELAN (peptide)
peptide: YSEGTFTSDK([AEEA-AEEA-γGlu-C18 diacid])SKYLDSQAAQDFVQWLLAGGPSSGAPPPS-NH2
modifications: N-terminus assumed
SMILES: CC(C)C[C@H](NC(=O)[C@H](CC(C)C)NC(=O)[C@H](Cc1c[nH]c2ccccc12)NC(=O)[C@H](CCC(N)=O)NC(=O)[C@@H](NC(=O)[C@H](Cc1ccccc1)NC(=O)[C@H](CC(=O)O)NC(=O)[C@H](CCC(N)=O)NC(=O)[C@H](C)NC(=O)[C@H](C)NC(=O)[C@H](CCC(N)=O)NC(=O)[C@H](CO)NC(=O)[C@H](CC(=O)O)NC(=O)[C@H](CC(C)C)NC(=O)[C@H](Cc1ccc(O)cc1)NC(=O)[C@H](CCCCN)NC(=O)[C@H](CO)NC(=O)[C@H](CCCCNC(=O)COCCOCCNC(=O)COCCOCCNC(=O)CC[C@H](NC(=O)CCCCCCCCCCCCCCCCC(=O)O)C(=O)O)NC(=O)[C@H](CC(=O)O)NC(=O)[C@H](CO)NC(=O)[C@@H](NC(=O)[C@H](Cc1ccccc1)NC(=O)[C@@H](NC(=O)CNC(=O)[C@H](CCC(=O)O)NC(=O)[C@H](CO)NC(=O)[C@@H](N)Cc1ccc(O)cc1)[C@@H](C)O)[C@@H](C)O)C(C)C)C(=O)N[C@@H](C)C(=O)NCC(=O)NCC(=O)N1CCC[C@H]1C(=O)N[C@@H](CO)C(=O)N[C@@H](CO)C(=O)NCC(=O)N[C@@H](C)C(=O)N1CCC[C@H]1C(=O)N1CCC[C@H]1C(=O)N1CCC[C@H]1C(=O)N[C@@H](CO)C(N)=O

Key:
Test in all cases: cell-based or functional assay
[1] = biological target: T1, glucose-dependent insulinotropic …
glucagon receptor (GCGR) = glucagon receptor (GCGR) (human (printed as 'Humanized'), UniProt P47871 26-477)
Sequence of glucagon receptor (GCGR) (P47871 26-477): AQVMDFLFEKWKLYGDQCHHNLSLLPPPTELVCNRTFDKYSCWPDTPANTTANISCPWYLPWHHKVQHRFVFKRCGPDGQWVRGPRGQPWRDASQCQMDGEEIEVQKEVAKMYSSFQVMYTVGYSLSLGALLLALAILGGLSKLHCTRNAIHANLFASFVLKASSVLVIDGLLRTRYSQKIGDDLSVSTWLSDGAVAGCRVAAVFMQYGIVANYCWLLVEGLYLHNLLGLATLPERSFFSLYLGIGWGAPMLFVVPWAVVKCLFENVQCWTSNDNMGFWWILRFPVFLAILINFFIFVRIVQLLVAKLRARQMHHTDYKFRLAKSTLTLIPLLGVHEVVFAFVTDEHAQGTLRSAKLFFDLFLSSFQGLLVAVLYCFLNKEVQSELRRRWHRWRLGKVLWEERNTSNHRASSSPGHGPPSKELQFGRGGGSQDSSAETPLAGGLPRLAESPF

[2] = biological target: human glucagon-like peptide-1 receptor (GLP-1R) (human (printed as 'Humanized'), UniProt P43220 24-463)

| Binder | GIPR agonist activity (EC50, nM) [1] [nM] | GCGR agonist activity (EC50, nM) (glucagon receptor (GCGR)) [nM] | GLP-1R agonist activity (EC50, nM) [2] [nM] |
| --- | --- | --- | --- |
| B1 | 0.19 | 4.77 | 4.25 |
| B2 | 0.004 | 4.57 | 0.11 |
| B3 | 1.56 | 5.87 | 0.81 |
